In the experiment the target is MyoVa^GTD (mouse) (UniProt Q99104). Description: ITC. In general terms: Isothermal titration calorimetry measures the heat released or taken up as one component is titrated into another.

For the substance Spir2^GTBM (domain or fragment), the fold higher affinity than MICAL1^GTBM was found to be 25 fold.

The record behind these values is PMC7673715.
